Assay results reported in PMC6327041 (Nature Communications, 2019).
Like-named read-outs stand apart in the source and are kept apart here.

Target: T1, KDM5A1-797 (Homo sapiens, UniProt P29375)
T1 construct: KDM5A1-797 was cloned into a pFASTBAC HTA vector; His (N, cleaved yes); made in house; host or cells: Sf21 insect cells (baculovirus)
T1 sequence (P29375 1-797): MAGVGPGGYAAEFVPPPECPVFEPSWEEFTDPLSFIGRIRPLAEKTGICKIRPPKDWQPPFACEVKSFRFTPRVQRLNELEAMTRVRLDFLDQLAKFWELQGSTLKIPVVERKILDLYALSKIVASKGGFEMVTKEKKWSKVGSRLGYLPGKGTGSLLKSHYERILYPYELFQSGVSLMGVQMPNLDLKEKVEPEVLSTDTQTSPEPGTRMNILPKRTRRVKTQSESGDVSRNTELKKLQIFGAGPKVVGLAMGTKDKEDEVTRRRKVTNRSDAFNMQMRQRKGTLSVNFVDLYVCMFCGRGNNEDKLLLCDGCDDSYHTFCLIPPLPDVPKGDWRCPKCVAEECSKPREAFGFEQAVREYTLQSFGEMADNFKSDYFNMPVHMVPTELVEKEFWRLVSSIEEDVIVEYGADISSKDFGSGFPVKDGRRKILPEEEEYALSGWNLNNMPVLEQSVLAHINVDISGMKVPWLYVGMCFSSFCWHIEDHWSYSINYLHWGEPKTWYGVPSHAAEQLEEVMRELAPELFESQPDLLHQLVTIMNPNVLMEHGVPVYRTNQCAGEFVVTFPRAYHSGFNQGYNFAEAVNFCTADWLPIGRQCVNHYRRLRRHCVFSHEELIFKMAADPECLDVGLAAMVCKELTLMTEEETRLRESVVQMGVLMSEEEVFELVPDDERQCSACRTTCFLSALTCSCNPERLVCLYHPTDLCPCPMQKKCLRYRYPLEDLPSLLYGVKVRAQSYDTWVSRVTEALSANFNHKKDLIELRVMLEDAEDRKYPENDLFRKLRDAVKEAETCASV
Experiment: KDM5A demethylation, FDH-coupled formaldehyde release assay
Type: biochemical
Details: for kcat / Km: n ≥ 3, s.e.m.
Protocol: WT KDM5A1-797 was expressed in Sf21 cells following Invitrogen Bac-to-Bac baculovirus expression system protocol. KDM5A1-797 was cloned into a pFASTBAC HTA vector. Purified bacmid was transfected in Sf21 cells. Approximately […] cells per well of a six-well dish were allowed to attach in 2 ml of SF-900 II SFM media containing 50 U ml^−1 penicillin and 50 μg ml^−1 streptomycin. While cells attached, 8 μl of Cellfectin II reagent (Invitrogen) in 100 μl of unsupplemented Grace’s medium was mixed with ~2–5 μg of bacmid in 100 μl of unsupplemented Grace’s medium and incubated for 15–30 min at 25 °C. Once cells were attached, media was removed and cells were washed with 2 ml of Grace’s unsupplemented media. The bacmid DNA:Cellfectin mixture was then diluted to 1 ml with Grace’s unsupplemented media and added to the well. Cells with bacmid:Cellfectin II mixture were incubated for 5 h at 27 °C. After 5 h of incubation, bacmid:Cellfectin mixture was removed and replaced with 2 ml of SF-900 II SFM 50 U ml^−1 penicillin and 50 μg ml^−1 streptomycin. Transfected cells were incubated 3–5 days or until signs of viral infection were observed. After transfection, the supernatant was spun down to remove the dead cells. The supernatant was then sterile filtered to obtain the P1 viral stock. To make P2, 20 ml of […] at ~2 × 10^6 cells per ml of sf21 was infected with 2 ml of P1 virus and incubated for 48–60 h. After 56 h, the cells were spun down and the supernatant was collected and sterile filtered to obtain P2 viral stock. Similarly, P3 viral stock from P2 viral stock was obtained. Generally, 1 l of Sf21 at 2 × 10^6 cells per ml was infected with ~40 ml of P3 virus for ~48–56 h. Cells were then collected and resuspended in the lysis buffer (25 mM HEPES pH 7.9, 350 mM NaCl, 5 mM KCl, 1.5 mM MgCl2, 10 mM imidazole, aprotinin 2 μg ml^−1, leupeptin 3 μg ml^−1, pepstatin 3 μg ml^−1, and 1 mM PMSF). Cells were homogenized by emulsiflex. After lysis, the supernatant was recovered by centrifuging at 35k r.p.m. for 45 min, and incubated with cobalt resin equilibrated in lysis buffer for 1 h at 4 °C. After incubation the resin was washed with wash buffer (25 mM HEPES, pH 7.9, 350 mM NaCl, 0.5 mM MgCl2, 10% glycerol, 10 mM imidazole, aprotinin 2 μg ml^−1, leupeptin 3 μg ml^−1, pepstatin 3 μg ml^−1, and 1 mM PMSF). His-KDM5A was eluted with elution buffer (25 mM HEPES pH 7.9, 100 mM NaCl, 0.5 mM MgCl2, 10% glycerol, 100 mM imidazole, aprotinin 2 μg ml^−1, leupeptin 3 μg ml^−1, pepstatin 3 μg ml^−1, and 1 mM PMSF). The His-tag was removed by overnight incubation with TEV protease at 4 °C in the dialysis buffer (25 mM HEPES, pH 7.9, 100 mM NaCl, and 2 mM DTT). After cleavage, protein was further purified by size-exclusion chromatography using a S200 column. Purified KDM5A was eluted, aliquoted and stored at −80 °C in 40 mM HEPES, pH 7.9, 50 mM KCl.
Michaelis–Menten parameters were determined using Graphpad Prism.

[1] = 38 µM H3 10mer effector peptide vs none
[2] = KDM5A1-797 WT (Table 3), no effector

change of kcat on addition of effector peptide [1]	reduction in Km on addition of effector peptide [1]	kcat/Km (+H3 10mer peptide (38 µM)) [M⁻¹ s⁻¹]	kcat (+H3 10mer peptide (38 µM), 1 μM KDM5A, pH 7.5, room temperature) [s⁻¹]	Km (+H3 10mer peptide (38 µM), 1 μM KDM5A, pH 7.5, room temperature, read-out: Km) [µM]	kcat/Km [2] [M⁻¹ s⁻¹]	kcat [2] [s⁻¹]	Km (KDM5A1-797 WT (Table 3), no effector, read-out: Km) [µM]	kcat/Km (No effector peptide) [M⁻¹ s⁻¹]	kcat (No effector peptide, 1 μM KDM5A, pH 7.5, room temperature) [s⁻¹]	Km (No effector peptide, 1 μM KDM5A, pH 7.5, room temperature, read-out: Km) [µM]	rank of Km reduction among effector peptides (Ac-H3K4me3 21mer substrate, saturating effector peptide)	Km (Km of Ac-H3K4me3 21mer with saturating modified H3 10mer effector (20× Kd; H3K4me2 10× Kd), 1 μM KDM5A, 50 mM HEPES, 50 mM KCl, pH 7.5, room temperature, read-out: Demethylase activity Km with effector peptide (Fig. 4a)) [µM]	Substance
kcat remains similar	fivefold	2430 ± 200	0.0408 ± 0.00067	16.8 ± 1.1	490 ± 55	0.047 ± 0.0013	95.5 ± 7.6	490 ± 55	0.047 ± 0.001	95.5 ± 7.6			Ac-H3K4me3 21mer: N-terminally acetylated 21mer H3K4me3 peptide, catalytic domain substrate
											highest reduction in Km	16.8 ± 1.1	H3: unmodified N-terminal H3 tail 10mer peptide (H3 Ala1-Ser10), PHD1 effector ligand
